From patent US8697386B2, “Methods and compositions for modulating hepsin activation of macrophage-stimulating protein” (Genentech, Inc., priority 2009, dated 2014)
Entries after “also recorded” stand apart in the source; their conditions may differ.

T1: human Ron (Homo sapiens, UniProt Q04912)
T1 construct: the Ron (Sema IPT1)-IgG fusion protein was captured
T1 sequence (Q04912 25-683 limits assumed): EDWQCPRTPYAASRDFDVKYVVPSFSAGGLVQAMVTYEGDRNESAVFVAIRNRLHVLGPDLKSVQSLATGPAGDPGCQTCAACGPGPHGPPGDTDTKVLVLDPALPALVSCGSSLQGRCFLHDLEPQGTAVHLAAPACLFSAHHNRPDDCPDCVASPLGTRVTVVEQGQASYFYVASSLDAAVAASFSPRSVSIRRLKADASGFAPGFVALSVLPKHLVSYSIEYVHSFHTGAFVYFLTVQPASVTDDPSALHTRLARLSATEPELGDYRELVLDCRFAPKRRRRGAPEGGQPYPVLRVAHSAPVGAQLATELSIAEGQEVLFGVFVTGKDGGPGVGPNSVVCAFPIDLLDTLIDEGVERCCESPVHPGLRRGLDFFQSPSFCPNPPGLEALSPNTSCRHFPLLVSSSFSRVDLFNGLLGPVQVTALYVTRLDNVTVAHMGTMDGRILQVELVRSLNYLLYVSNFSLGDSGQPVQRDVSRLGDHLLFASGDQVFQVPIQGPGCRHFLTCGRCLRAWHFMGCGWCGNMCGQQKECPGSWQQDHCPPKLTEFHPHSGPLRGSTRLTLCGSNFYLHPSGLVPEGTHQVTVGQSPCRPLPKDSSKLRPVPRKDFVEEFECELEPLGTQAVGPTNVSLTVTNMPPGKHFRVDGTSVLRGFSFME


Legend:
[1] = molecular target: T1, human Ron; experiment: Binding to Ron by surface plasmon resonance (BIAcore); conditions: SPR; for detectable binding to Ron: up to a concentration of 1 μM
Experimental: Binding of hepsin-activated pro-MSP to Ron by surface plasmon resonance and ELISA: To determine binding affinity of hepsin-activated MSP to human Ron, surface plasmon resonance measurements on a BIAcore™-3000 instrument (GE Health Care, NJ) were performed. Rabbit anti-human IgG were chemically immobilized (amine coupling) on CM5 biosensor chips and the Ron (Sema IPT1)-IgG fusion protein was captured to give approximately 250 response units (RU). For kinetics measurements, different concentration of either hepsin-activated MSP or a commercially available MSP (R&D systems) were injected in HBS-P buffer at 25° C. with a flow rate of 30 μl/min. Association rates (kon) and dissociation rates (koff) were obtained by using a simple one-to-one Langmuir binding model (BIA-Evaluation) and the equilibrium dissociation constants (KD) were calculated (koff/kon). For ELISA experiments, maxiSorp microtiter plates (Nunc, Roskilde, Denmark) were coated overnight at 4° C. with 2 μg/ml of rabbit anti-human IgG Fc specific antibody (Jackson ImmunoResearch Laboratory, West Grove, Pa.) in 50 mM sodium carbonate buffer, pH 9.6. After blocking with assay buffer (PBS pH 7.4, 0.5% BSA and 0.05% Tween-20, 15 PPM Proclin), 1 μg/ml Ron (Sema IPT1)-IgG fusion protein was added and plates were incubated for 1 hour with gentle shaking at room temperature. After washing with wash buffer (PBS, 0.05% polysorbate 20), His tagged MSP proteins were added for 1 hour. Bound MSP was detected using anti-His-HRP (Qiagen, Valencia, Calif.) followed by addition of TMB/H2O2 substrate (KPL, Gaithersburg, Md.). The reaction was stopped with 1M H3PO4 and the A450 was measured on a Molecular Devices (Sunnyvale, Calif.) SpectraMax Plus^384 microplate reader. The effective concentration to give half-maximal binding (EC50) was determined by a four parameter fit using Kaleidagraph (Synergy Software, Reading, Pa.).

[2] = molecular target: T2, hepsin (Homo sapiens, UniProt P05981); experiment: In vitro activation of pro-MSP by recombinant hepsin (SDS-PAGE); type: biochemical; conditions: 25 μg/ml substrate, hepsin 1.25-10 nM, 37° C., SDS-PAGE reducing; mutant up to 24 hours
T2 construct: The extracellular domain of the human recombinant hepsin was expressed and purified as described; made in house
T2 sequence (P05981 45-417 limits assumed): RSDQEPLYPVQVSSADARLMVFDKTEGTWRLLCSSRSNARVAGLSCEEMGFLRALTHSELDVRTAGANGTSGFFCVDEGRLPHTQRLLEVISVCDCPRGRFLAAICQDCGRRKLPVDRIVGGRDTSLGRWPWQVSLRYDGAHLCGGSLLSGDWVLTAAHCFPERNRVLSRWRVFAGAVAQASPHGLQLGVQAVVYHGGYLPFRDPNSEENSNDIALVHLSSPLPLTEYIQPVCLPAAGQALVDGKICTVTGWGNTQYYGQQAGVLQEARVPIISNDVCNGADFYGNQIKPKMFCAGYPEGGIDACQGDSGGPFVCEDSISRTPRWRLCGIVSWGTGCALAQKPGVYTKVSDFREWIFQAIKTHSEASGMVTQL
Experimental: Analysis of in vitro activation of pro-msp by hepsin using sds-page: Pro-MSP (25 μg/ml) was incubated with different concentrations of hepsin (1.25 nM, 2.5 nM, 5 nM and 10 nM) in a buffer containing 50 mM Tris-HCl pH 8.0, 150 mM NaCl, 0.05% Triton-X100 and 2 mM CaCl2 at 37° C. Aliquots of the reaction mixture at different time points were mixed 6×-SDS sample buffer and the samples were boiled for 5 minutes at 95° C. and separated by SDS-PAGE using a 4-20% gradient gel. Protein was visualized after staining with SimplyBlue Safe Stain (Invitrogen, Carlsbad, Calif.). Similar experiments were performed with the pro-MSP that was mutated to render it uncleavable at Arg483-Val484(pro-MSP-R483E) to assess if proteolytic cleavage site occurs at a different site apart from the expected Arg483-Val484 bond in pro-MSP.

[3] = system: bone marrow macrophages; experiment: Inhibition of nitric oxide (NO) synthesis in bone marrow macrophages; type: cell-based, mouse; conditions: MSP/pro-MSP 10 ng/ml, hepsin 1 nM, 24 hours, Griess reaction
Experimental: Inhibition of NO synthesis by mature MSP: Bone marrow cells obtained from collected mouse femurs were pipetted to a single-cell suspension and then spun down. Red blood cells were lysed by incubation with erythrocyte lysis buffer for 5 minutes at room temperature. Cells were then suspended in macrophage differentiation medium (DMEM with glutamine containing 10% FBS, Pen/Strep and 50 ng/ml recombinant mCSF-1). Cells were then plated onto sterile 24-well non-tissue culture dishes. Medium was changed the next day and subsequently every 2 days. After 6 days in culture, the macrophages were mature and these mature cells were washed in serum-free DMEM and further incubated for 2 hours. Different reactions (total volume 300 μL) as indicated in the figure consisting of recombinant MSP (10 ng/ml), pro-MSP (10 ng/ml), hepsin (1 nM) and Fab25 (500 nM) were added to the respective wells and cultured for 24 hours at 37° C. in a tissue culture incubator. NO production was quantified using Griess reaction (Molecular Probes) according to manufacturer's recommendation.

[4] = system: Ron signaling pathway; experiment: Immunoblot for phosphorylated downstream kinases in A2780 cells overexpressing human Ron; type: cell-based; conditions: pro-MSP 10 and 50 ng/ml, 10 nM hepsin, 1 hour
Experimental: Immunoblot for the detection of phosphorylated kinases: A human ovarian carcinoma cell line (A2780) overexpressing human Ron was used to study the phosphorylation of Ron and other downstream kinase. Cells at a density of 2×10^5 cells/well were cultured in 12-well plate and serum-starved for 24 hours. The cells were then stimulated with either pro-MSP (10 and 50 ng/ml) alone or in presence of 10 nM Hepsin for 1 hour. Mature MSP from a commercial source and hepsin were used as controls. Samples were prepared by washing cells twice with cold PBS followed by addition of 200 ul lysis buffer. Samples were then analyzed by SDS/PAGE on 4-12% Tris-glycine gels (Invitrogen, Carlsbad, Calif.). Proteins were transferred onto nitrocellulose membranes and subsequently treated with anti-Ron antibody or anti-phospho-AKT antibody or anti-phospho-MAPK antibody or anti-phospho-S6 antibody, overnight at 4° C. After washing, membranes were incubated with IRDye800-conjugated goat anti-mouse IgG (Rockland, Gilbertsville, Pa.) and AlexaFluor 680 goat anti-rabbit IgG (Invitrogen) for 1 h. Proteins were detected with the Odyssey Infrared Imaging System (LI-COR Biosciences, Lincoln, Nebr.).

| Kd ([1]; Ron-Fc captured on CM5 chip, 1:1 binding model, 25° C., read-out: KD, binding affinity to Ron) [nM] | Molecule | detectable binding to Ron [1] | proteolytic cleavage/activation by hepsin [2] | effect on NO production in response to LPS [3] | phosphorylation of MAP kinase and S6 kinase (activation of Ron signaling pathway) [4] |
| --- | --- | --- | --- | --- | --- |
| – | pro-MSP-R483E: pro-MSP mutated to render it uncleavable at Arg483-Val484 (protein) QRSPLNDFQVLRGTELQHLLHAVVPGPWQEDVADAEECAGRCGPLMDCRAFHYNVSSHGCQLLPWTQHSPHTRLRRSGRCDLFQKKDYVRTCIMNNGVGYRGTMATTVGGLPCQAWSHKFPNDHKYTPTLRNGLEENFCRNPDGDPGGPWCYTTDPAVRFQSCGIKSCREAACVWCNGEEYRGAVDRTESGRECQRWDLQHPHQHPFEPGKFLDQGLDDNYCRNPDGSERPWCYTTDPQIEREFCDLPRCGSEAQPRQEATTVSCFRGKGEGYRGTANTTTAGVPCQRWDAQIPHQHRFTPEKYACKDLRENFCRNPDGSEAPWCFTLRPGMRAAFCYQIRRCTDDVRPQDCYHGAGEQYRGTVSKTRKGVQCQRWSAETPHKPQFTFTSEPHAQLEENFCRNPDGDSHGPWCYTMDPRTPFDYCALRRCADDQPPSILDPPDQVQFEKCGKRVDRLDQRRSKLEVVGGHPGNSPWTVSLRNRQGQHFCGGSLVKEQWILTARQCFSSCHMPLTGYEVWLGTLFQNPQHGEPSLQRVPVAKMVCGPSGSQLVLLKLERSVTLNQRVALICLPPEWYVVPPGTKCEIAGWGETKGTGNDTVLNVALLNVISNQECNIKHRGRVRESEMCTEGLLAPVGACEGDYGGPLACFTHNAWVLEGIIIPNRVCARSRWPAVFTRVSVFVDWIHKVMRLG | Neither pro-MSP nor the cleavage site mutant (pro-MSP-R483E) had any detectable binding | did not cleave | – | – |
| – | pro-MSP: inactive single-chain precursor of MSP; recombinant human MSP with C672A mutation expressed in Chinese Hamster Ovary cells (protein, listed as Homo sapiens) MGWLPLLLLLTQCLGVPGQRSPLNDFQVLRGTELQHLLHAVVPGPWQEDVADAEECAGRCGPLMDCRAFHYNVSSHGCQLLPWTQHSPHTRLRRSGRCDLFQKKDYVRTCIMNNGVGYRGTMATTVGGLPCQAWSHKFPNDHKYTPTLRNGLEENFCRNPDGDPGGPWCYTTDPAVRFQSCGIKSCREAACVWCNGEEYRGAVDRTESGRECQRWDLQHPHQHPFEPGKFLDQGLDDNYCRNPDGSERPWCYTTDPQIEREFCDLPRCGSEAQPRQEATTVSCFRGKGEGYRGTANTTTAGVPCQRWDAQIPHQHRFTPEKYACKDLRENFCRNPDGSEAPWCFTLRPGMRAAFCYQIRRCTDDVRPQDCYHGAGEQYRGTVSKTRKGVQCQRWSAETPHKPQFTFTSEPHAQLEENFCRNPDGDSHGPWCYTMDPRTPFDYCALRRCADDQPPSILDPPDQVQFEKCGKRVDRLDQRRSKLRVVGGHPGNSPWTVSLRNRQGQHFCGGSLVKEQWILTARQCFSSCHMPLTGYEVWLGTLFQNPQHGEPSLQRVPVAKMVCGPSGSQLVLLKLERSVTLNQRVALICLPPEWYVVPPGTKCEIAGWGETKGTGNDTVLNVALLNVISNQECNIKHRGRVRESEMCTEGLLAPVGACEGDYGGPLACFTHNAWVLEGIIIPNRVCARSRWPAVFTRVSVFVDWIHKVMRLG | Neither pro-MSP nor the cleavage site mutant (pro-MSP-R483E) had any detectable binding; also recorded: No detectable binding | activated pro-MSP in a dose-dependent and time dependent manner | did not inhibit | Neither hepsin nor pro-MSP alone was effective |
| 4.4 | commercially available MSP: recombinant active form of human MSP (R&D Systems) (protein) chain 1: QRSPLNDFQVLRGTELQHLLHAVVPGPWQEDVADAEECAGRCGPLMDCRAFHYNVSSHGCQLLPWTQHSPHTRLRRSGRCDLFQKKDYVRTCIMNNGVGYRGTMATTVGGLPCQAWSHKFPNDHKYTPTLRNGLEENFCRNPDGDPGGPWCYTTDPAVRFQSCGIKSCREAACVWCNGEEYRGAVDRTESGRECQRWDLQHPHQHPFEPGKFLDQGLDDNYCRNPDGSERPWCYTTDPQIEREFCDLPRCGSEAQPRQEATTVSCFRGKGEGYRGTANTTTAGVPCQRWDAQIPHQHRFTPEKYACKDLRENFCRNPDGSEAPWCFTLRPGMRAAFCYQIRRCTDDVRPQDCYHGAGEQYRGTVSKTRKGVQCQRWSAETPHKPQFTFTSEPHAQLEENFCRNPDGDSHGPWCYTMDPRTPFDYCALRRCADDQPPSILDPPDQVQFEKCGKRVDRLDQRRSKLR chain 2: VVGGHPGNSPWTVSLRNRQGQHFCGGSLVKEQWILTARQCFSSCHMPLTGYEVWLGTLFQNPQHGEPSLQRVPVAKMVCGPSGSQLVLLKLERSVTLNQRVALICLPPEWYVVPPGTKCEIAGWGETKGTGNDTVLNVALLNVISNQECNIKHRGRVRESEMCTEGLLAPVGACEGDYGGPLACFTHNCWVLEGIIIPNRVCARSRWPAVFTRVSVFVDWIHKVMRLG | – | – | – | – |
